{"source": "patent US12024544B2", "about": "“CCN3 and CCN3 peptides and analogs thereof for therapeutic use” (Rosalind Franklin University of Medicine & Science, priority 2010, dated 2024)", "molecules": {"B1": {"name": "CCN3: full-length recombinant human CCN3 protein (SEQ. ID. No. 67), commercial (Pepro Tech) or made in HEK-293 (protein)", "chain": "MQVAATQRCPPQCPGRCPATPPTCAPGVRAVLDGCSCCLVCARQRGESCSDLEPCDESSGLYCDRSADPSNQTGICTAVEGDNCVFDGVIYRSGEKFQPSCKFQCTCRDGQIGCVPRCQLDVLLPEPNCPAPRKVEVPGECCEKWICGPDEEDSLGGLTLAAYRPEATLGVEVSDSSVNCIEQTTEWTACSKSCGMGFSTRVTNRNRQCEMLKQTRLCMVRPCEQEPEQPTDKKGKKCLRTKKSLKAIHLQFKNCTSLHTYKPRFCGVCSDGRCCTPHNTKTIQAEFQCSPGQIVKKPVMVIGTCTCHTNCPKNNEAFLQELELKTTRGKM"}}, "key": {"BTBR Ob/Ob mouse [1]": {"tested_on": "BTBR Ob/Ob mouse", "assay": "BTBR Ob/Ob mouse as model of liver disease", "assay_type": "in vivo", "conditions": "8 weeks of treatment", "experimental": "(§1) This was carried out using the BTBR Ob/Ob mouse strain that has a defective leptin receptor that results in increased appetite. As a result it rapidly gains weight over the control strain and becomes hyperglycemic at about one month of age, going on to develop renal disease resembling that in humans. This is regarded by some to be the rodent model best mirroring renal disease in humans as a complication of diabetes. Animals were treated with either rCCN3 (SEQ. ID. NO: 67) or CCNp38 (SEQ. ID. NO: 38) beginning at 9 weeks of age, when early renal disease has been documented. The disease was allowed to develop for 9 weeks, then treatment started. Mice were treated 3 times per week for 8 weeks. At 17 weeks, blood and urine were collected, and animals sacrificed with organ samples collected. The effect of treatment with either CCN3 (2 concentrations, 2 or 20× the circulating amounts) or mimic peptide (CCNp38, 2 concentrations, 20 or 200× the equivalent molar circulating concentration of CCN3) was tested. Assays to determine the effect of CCN3 or peptide on expression of target fibrosis genes and clinical pathology were determined using methods as previously described (Riser, Amer J Pathology 2009) and (McIntosh, L M, et al., Selective CCR2-targeted macrophage depletion ameliorates experimental mesangioproliferative glomerulonephritis, Clinical and Experimental Immunology, 2008, 155, 295-303).\nSince a common complication of diabetes is fatty liver, hepatitis, NASH, and in some cases liver fibrosis, we used the BTBR Ob/Ob mouse experiments described above as a model of human liver disease to examine the possibility that CCN3 or more particularly CCNp peptides might provide a treatment to prevent, treat, or reverse the liver disease described above."}, "BTBR Ob/Ob mouse [2]": {"tested_on": "BTBR Ob/Ob mouse", "assay": "BTBR Ob/Ob mouse model of diabetic renal disease", "assay_type": "in vivo", "experimental": "as §1\nThis was carried out using the BT/BR Ob/Ob mouse strain that has a defective leptin receptor that results in increased appetite. As a result mice rapidly gain weight over the control strain and become hyperglycemic at about one month of age going on to develop renal disease resembling that in humans. This is regarded by some to be the best rodent model for mirroring renal disease in humans as a complication of diabetes. […] Animals were treated with either rCCN3 (SEQ. ID. NO: 67) or CCNp38 (SEQ. ID. NO: 38) beginning at 9 weeks of age, when early renal disease has been documented. Mice were treated for 8 weeks, then sacrificed and measured for renal disease and other complications, and the effect drug treatment. Test animals were documented to have developed diabetes by 9 weeks, and were randomized for treatment, thus providing equivalent blood glucose levels in each treated group."}, "MMP-1": {"tested_on": "MMP-1", "assay": "MMP-1 production by human skin fibroblasts", "assay_type": "cell-based", "source_text": "To test this we used a cell culture model of skin healing/scarring, which employed the use of primary human skin fibroblasts derived from foreskins collected post circumcision. These have been used extensively in the past to grown in culture and treated with agents that are known to drive wound healing and or scarring. We were also interested in a rare form of skin fibrosis/scarring that can lead to systemic disease and death known as nephrogenic systemic fibrosis (NSF). NSF is a complication of NMR diagnostics in renal impaired patients, where gadolinium (GAD), a heavy metal, is used as a contrast agent, but in some cases appears to deposit in skin. Although the mechanism for development of skin fibrosis and subsequent systemic disease is not yet completely understood, we have developed a model that has allowed elucidation of the probable pathway to skin fibrosis (Bhagavathula, N., M. K. Dame, M. DaSilva, W. Jenkins, M. N. Aslam, P. Perone and J. Varani (2010)). “Fibroblast response to gadolinium: role for platelet-derived growth factor receptor.” Invest Radiol 45(12): 769-777). This disease is characterized as a hyperproliferative disease, and in our model it was shown that PDGF produced by resident skin fibroblasts are stimulated by GAD to increase their production of PDGF which acts to induce proliferation and the increased production of MMPs, regulators of ECM breakdown and thus turnover, including the major MMP, MMP-1. At the same time tissue inhibitors of MMPs (TIMPs) are also affected by exposure to GAD. […] It appears that local fibroblasts then respond to this increased TGF-beta by increasing their production of ECM, including predominantly collagen type 1.\nWe examined the role of CCN3 and CCNp in fibroproliferative/fibrotic responses in human dermal fibroblasts exposed to Omniscan, one of the gadolinium-based contrast agents associated with development of nephrogenic systemic fibrosis. These studies were carried out as we have previously described (Riser, B. L., N. Bhagavathula, P. Perone, K. Garchow, Y. Xu, G. J. Fisher, F. Najmabadi, D. Attili and J. Varani (2012)). “Gadolinium-induced fibrosis is counter-regulated by CCN3 in human dermal fibroblasts: a model for potential treatment of nephrogenic systemic fibrosis.” J Cell Commun Signal 6(2): 97-105.). In our studies, human dermal fibroblasts were exposed to Omniscan; or to PDGF and TGF-β1 as controls. Cellular proliferation was assessed along with MMP-1 (by ELISA and gelatin zymography), TIMP-1 (by ELISA) and COL1 (by ELISA) in the absence and presence of CCN3 and CCNp. CCN3 and CCNp38 was added to cells at 10 nM concentration and at the same time as PDGF. In parallel, CCN3 production was assessed in control and Omniscan-treated cells. In most case the results shown (each bar) are the mean of 3-5 separate experiments, using fibroblasts from different donors. CCN3 was produced in our laboratory from the human embryonic kidney cell line (HEK-293) transfected with the complete human CCN3 gene, and producing an approximate 55 kDa, full-length CCN3 product. A second source of CCN3 was obtained from Pepro Tech Corporation (Rocky Hill, NJ) and is produced in a prokaryote cell line.\nNext we created and tested for efficacy, additional CCNp including those with the cysteines intact (native sequence) from CCNp37 and CCNp38 and those that were modified by either shortening the peptide by 1 or 2 amino acids or lengthening by one amino acid. These agents were added to human skin fibroblasts in increasing concentrations from 1 nM to 100 nM and compared to the equal concentration of CCN3 (SEQ. ID. NO: 67). They were added just prior to the addition of either TGF-beta or PDGF, depending on the experiment."}}, "note": "“Also recorded” adds a separate entry of the source."}
{"molecule": "B1", "values": [{"measurement": "effect on increased liver weight", "setting": "BTBR Ob/Ob mouse [1]; FIG. 41", "result": "slightly reduces this increase"}, {"measurement": "effect on increased liver mRNA levels for CCN2", "setting": "BTBR Ob/Ob mouse [1]; liver, two doses, FIG. 42", "result": "greatly reduces or blocks the increase in a dose-dependent manner"}, {"measurement": "effect on increased liver mRNA levels for Col1A2", "setting": "BTBR Ob/Ob mouse [1]; liver, two doses, FIG. 43", "result": "dose-dependently reduced, or blocked the increase in collagen expression; also recorded: reduced"}, {"measurement": "effect on elevated plasma creatinine", "setting": "BTBR Ob/Ob mouse [2]; 17 weeks of diabetes, 8 weeks of treatment 3 times per week, FIG. 35", "result": "reduces or blocks this pathology; also recorded: reduces or blocks this impairment"}, {"measurement": "effect on elevated albumin to creatinine ratio", "setting": "BTBR Ob/Ob mouse [2]; 17 weeks of diabetes, 8 weeks of treatment, FIG. 36", "result": "greatly blocks this pathology; also recorded: greatly blocks this renal damage"}, {"measurement": "effect on mesangial expansion (PAS staining, image analysis)", "setting": "BTBR Ob/Ob mouse [2]; 17 weeks of diabetes, 8 weeks of treatment, FIG. 37", "result": "greatly block this pathology and treats the disease; also recorded: greatly blocks this pathology"}, {"measurement": "effect on increased renal mRNA levels for CCN2", "setting": "BTBR Ob/Ob mouse [2]; kidney, 8 weeks of treatment, FIG. 38", "result": "greatly reduces or blocks the increase"}, {"measurement": "effect on increased renal mRNA levels for Col1A2", "setting": "BTBR Ob/Ob mouse [2]; kidney, 8 weeks of treatment, FIG. 39", "result": "greatly reduces or blocks the increase"}, {"measurement": "block of PDGF stimulated MMP-1 production", "setting": "MMP-1; 1 nM, FIG. 25", "result": "able to block little or no MMP-1 production"}, {"measurement": "reduction in PDGF stimulated MMP-1 production", "setting": "MMP-1; 10 nM, FIG. 26", "result": 27, "unit": "%"}, {"measurement": "reduction in PDGF stimulated MMP-1 production", "setting": "MMP-1; 100 nM, FIG. 27", "result": 30, "unit": "%"}, {"measurement": "block of PDGF-induced increase in MMP-1 activity", "setting": "MMP-1; PDGF, 10 nM, FIG. 17", "result": "able to block that increase"}, {"measurement": "effect on MMP-1 with TGF-beta", "setting": "MMP-1; TGF-beta (no stimulating effect), FIG. 18", "result": "no effect"}]}
